Molecular target: centromere-binding factor 1 (CBF1) (human) (UniProt Q06330)
Assay: cell-based or functional assay

Sequence of centromere-binding factor 1 (CBF1) (human) (Q06330 whole entry): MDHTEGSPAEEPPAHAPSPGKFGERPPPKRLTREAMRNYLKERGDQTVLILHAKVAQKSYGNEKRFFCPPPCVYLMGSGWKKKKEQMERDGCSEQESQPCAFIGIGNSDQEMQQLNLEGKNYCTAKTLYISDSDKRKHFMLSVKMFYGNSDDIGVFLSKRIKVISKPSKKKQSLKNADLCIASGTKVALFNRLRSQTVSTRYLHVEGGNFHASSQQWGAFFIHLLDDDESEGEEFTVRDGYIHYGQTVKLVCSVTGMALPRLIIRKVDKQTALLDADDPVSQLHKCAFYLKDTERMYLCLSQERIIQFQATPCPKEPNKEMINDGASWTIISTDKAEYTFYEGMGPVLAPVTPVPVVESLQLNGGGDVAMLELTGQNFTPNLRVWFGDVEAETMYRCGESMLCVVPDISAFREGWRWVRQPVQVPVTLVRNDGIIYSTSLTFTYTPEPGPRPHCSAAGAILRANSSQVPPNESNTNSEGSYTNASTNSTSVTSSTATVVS

luciferase activity (CBF1 binding site reporter, wild-type/mutant, relative to beta-galactosidase): 5 fold
Substance: Notch1 intracellular domain (NICD) (from UniProt P46531 1754-2555) (receptor)
